Test results published in article PMC3367199.

T1: rCRR22 (UniProt Q3E6Q1 47-809)
T1 sequence: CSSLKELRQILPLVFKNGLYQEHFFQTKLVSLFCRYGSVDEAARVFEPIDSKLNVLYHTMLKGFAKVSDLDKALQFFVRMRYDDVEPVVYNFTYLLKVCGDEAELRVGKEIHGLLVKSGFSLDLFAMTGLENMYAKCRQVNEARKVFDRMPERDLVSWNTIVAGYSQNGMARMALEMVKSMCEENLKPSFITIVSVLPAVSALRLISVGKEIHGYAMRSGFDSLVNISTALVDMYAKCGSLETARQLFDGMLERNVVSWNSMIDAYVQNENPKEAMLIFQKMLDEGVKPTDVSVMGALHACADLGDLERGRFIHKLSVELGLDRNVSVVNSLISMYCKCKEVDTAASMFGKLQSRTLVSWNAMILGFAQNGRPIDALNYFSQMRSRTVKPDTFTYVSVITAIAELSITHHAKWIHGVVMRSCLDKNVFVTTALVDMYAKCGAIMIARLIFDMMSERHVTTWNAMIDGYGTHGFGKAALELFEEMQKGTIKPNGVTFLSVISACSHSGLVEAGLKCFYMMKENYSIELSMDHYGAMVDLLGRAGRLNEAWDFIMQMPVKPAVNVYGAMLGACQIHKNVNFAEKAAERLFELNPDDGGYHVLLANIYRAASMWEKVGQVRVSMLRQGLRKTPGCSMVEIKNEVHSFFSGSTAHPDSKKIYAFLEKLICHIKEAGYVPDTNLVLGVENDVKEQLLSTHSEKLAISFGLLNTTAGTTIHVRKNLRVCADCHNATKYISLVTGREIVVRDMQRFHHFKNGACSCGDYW

B1: ndhB7L (ssRNA)
RNA: AUCACUGUAGGAAUUGGGUUCAAGCUUUCCCUAGCCCCUUCUCAUCAAUGG
B2: ndhD5L (ssRNA)
RNA: GUCGGUACAAUCCAAAUAAUUUAUGCAGCUUCAACAUCUCCCGGUCAACGU
B3: rpoB3L (ssRNA)
RNA: GGUUCAAGUUAUAACCCAGAAAUAAUUCGUGUAUAUAUUUCACAGAAACGU
B4: ndhB9L (ssRNA)
RNA: GCUUUUCUUUCUGUUACUUCGAAAGUAGCUGCUUCAGCUUCAGCCACUCGA
B5: ndhG1L (ssRNA)
RNA: CCUGGACCAAUACAUGAUUUUCUUUUAGUUUUUCUGGGAUCCGGUCUUCUA

biological target: T1, rCRR22; assay: EMSA

Binder	binding result	Kd [nM]
B1	binds	–
B2	binds	–
B3	binds	–
CAAGCUUUCCCUAGCCCCUUC (ssRNA) [ndhB7S]	–	9.2
UUAUGCAGCUUCAACAUCUCC (ssRNA) [ndhD5S]	–	10.8
AAUAAUUCGUGUAUAUAUUUC (ssRNA) [rpoB3S]	–	13.5 ± 2.5
GCUUUCCCUAGCCCCUUC (ssRNA) [ndhB7S2]	–	70
UGCAGCUUCAACAUCUCC (ssRNA) [ndhD5S2]	–	96.2
AAUUCGUGUAUAUAUUUC (ssRNA) [rpoB3S2]	–	18.9 ± 3.1

biological target: T2, rOTP82 (UniProt Q9LN01 41-741); assay: EMSA
T2 sequence (Q9LN01 41-741): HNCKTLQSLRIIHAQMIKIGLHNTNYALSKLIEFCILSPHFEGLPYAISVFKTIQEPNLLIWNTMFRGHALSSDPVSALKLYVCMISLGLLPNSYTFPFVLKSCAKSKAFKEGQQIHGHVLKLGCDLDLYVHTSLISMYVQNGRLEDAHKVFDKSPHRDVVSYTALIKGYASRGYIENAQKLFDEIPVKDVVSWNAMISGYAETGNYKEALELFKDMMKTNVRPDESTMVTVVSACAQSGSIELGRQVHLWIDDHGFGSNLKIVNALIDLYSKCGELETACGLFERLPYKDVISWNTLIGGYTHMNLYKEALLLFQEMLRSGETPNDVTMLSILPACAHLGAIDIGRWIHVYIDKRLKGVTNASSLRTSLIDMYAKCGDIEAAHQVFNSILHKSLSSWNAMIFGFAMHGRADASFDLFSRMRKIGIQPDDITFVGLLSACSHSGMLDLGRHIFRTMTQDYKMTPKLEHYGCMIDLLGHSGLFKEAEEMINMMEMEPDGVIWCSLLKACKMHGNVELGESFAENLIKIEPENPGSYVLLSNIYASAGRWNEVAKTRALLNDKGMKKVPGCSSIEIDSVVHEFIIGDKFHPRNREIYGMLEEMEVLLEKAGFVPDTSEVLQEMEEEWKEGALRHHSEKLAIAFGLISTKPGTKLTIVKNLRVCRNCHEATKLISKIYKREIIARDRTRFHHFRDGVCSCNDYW

Binder	Kd [nM]	binding result
UAGCUGCUUCAGCUUC (ssRNA) [ndhB9S]	9.7	–
UAGUUUUUCUGGGAUC (ssRNA) [ndhG1S]	12.2	–
B4	–	binds
B5	–	binds
CUGCUUCAGCUUC (ssRNA) [ndhB9S2]	119	–
UUUUUCUGGGAUC (ssRNA) [ndhG1S2]	167	–

biological target: T1, rCRR22; assay: EMSA; remark: another data set of the same source

Binder	binding result
GACCUGGUGUAUCUUGUCUUUACCACGAAUGAUUUU (ssRNA) [ndhD1]	no binding
UAACUGUCCUAGCUCUACCG (ssRNA) [ycf1]	no binding

biological target: T2, rOTP82; assay: EMSA; remark: another data set of the same source

Binder	binding result
GACCUGGUGUAUCUUGUCUUUACCACGAAUGAUUUU (ssRNA) [ndhD1]	no binding
GCAAUGUACAGCGGUCAAAUAGGAUCAUUUUCUUCU (ssRNA) [ndhD2]	no binding
